# T1: IKKβ(h) (human, UniProt O14920 1-756, limits assumed)
# T1 sequence (looked up): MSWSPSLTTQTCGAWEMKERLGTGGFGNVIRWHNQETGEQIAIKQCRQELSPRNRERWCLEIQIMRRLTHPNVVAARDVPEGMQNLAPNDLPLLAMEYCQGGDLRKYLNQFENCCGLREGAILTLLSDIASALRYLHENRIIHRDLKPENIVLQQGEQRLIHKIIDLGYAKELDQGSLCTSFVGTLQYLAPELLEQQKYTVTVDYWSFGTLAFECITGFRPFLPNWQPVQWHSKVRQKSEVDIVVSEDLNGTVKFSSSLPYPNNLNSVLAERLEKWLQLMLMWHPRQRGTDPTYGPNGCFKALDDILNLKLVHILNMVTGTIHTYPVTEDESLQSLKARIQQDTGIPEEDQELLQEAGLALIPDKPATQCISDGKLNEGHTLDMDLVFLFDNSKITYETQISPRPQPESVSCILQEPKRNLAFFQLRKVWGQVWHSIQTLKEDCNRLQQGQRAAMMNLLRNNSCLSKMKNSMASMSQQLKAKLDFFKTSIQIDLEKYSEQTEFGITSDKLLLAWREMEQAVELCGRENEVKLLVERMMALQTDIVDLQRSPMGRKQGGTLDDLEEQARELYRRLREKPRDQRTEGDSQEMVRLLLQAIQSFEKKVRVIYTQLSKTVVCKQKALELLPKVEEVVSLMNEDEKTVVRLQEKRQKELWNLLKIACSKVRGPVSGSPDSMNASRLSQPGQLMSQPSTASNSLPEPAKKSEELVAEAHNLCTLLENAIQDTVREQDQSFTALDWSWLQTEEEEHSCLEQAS
# T2: PDK1 (h) (human, UniProt O15530 1-556, limits assumed)
# T2 sequence (looked up): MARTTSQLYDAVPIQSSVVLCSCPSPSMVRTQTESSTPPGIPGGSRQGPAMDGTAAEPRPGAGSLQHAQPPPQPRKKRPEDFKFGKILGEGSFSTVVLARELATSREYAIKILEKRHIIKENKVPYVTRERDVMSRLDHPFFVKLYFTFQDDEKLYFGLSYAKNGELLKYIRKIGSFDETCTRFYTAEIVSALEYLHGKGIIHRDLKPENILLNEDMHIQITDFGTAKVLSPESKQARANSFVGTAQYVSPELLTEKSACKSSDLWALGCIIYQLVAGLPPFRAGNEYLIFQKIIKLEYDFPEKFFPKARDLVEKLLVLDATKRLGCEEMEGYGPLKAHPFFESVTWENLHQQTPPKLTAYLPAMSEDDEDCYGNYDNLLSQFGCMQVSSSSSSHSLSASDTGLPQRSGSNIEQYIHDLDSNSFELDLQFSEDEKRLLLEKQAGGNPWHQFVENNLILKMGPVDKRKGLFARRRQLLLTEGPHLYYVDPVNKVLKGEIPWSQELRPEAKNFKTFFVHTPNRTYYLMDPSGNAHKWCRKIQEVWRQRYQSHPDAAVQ
# T3: PKCζ (h) (human, UniProt Q05513 1-592, limits assumed)
# T3 sequence (looked up): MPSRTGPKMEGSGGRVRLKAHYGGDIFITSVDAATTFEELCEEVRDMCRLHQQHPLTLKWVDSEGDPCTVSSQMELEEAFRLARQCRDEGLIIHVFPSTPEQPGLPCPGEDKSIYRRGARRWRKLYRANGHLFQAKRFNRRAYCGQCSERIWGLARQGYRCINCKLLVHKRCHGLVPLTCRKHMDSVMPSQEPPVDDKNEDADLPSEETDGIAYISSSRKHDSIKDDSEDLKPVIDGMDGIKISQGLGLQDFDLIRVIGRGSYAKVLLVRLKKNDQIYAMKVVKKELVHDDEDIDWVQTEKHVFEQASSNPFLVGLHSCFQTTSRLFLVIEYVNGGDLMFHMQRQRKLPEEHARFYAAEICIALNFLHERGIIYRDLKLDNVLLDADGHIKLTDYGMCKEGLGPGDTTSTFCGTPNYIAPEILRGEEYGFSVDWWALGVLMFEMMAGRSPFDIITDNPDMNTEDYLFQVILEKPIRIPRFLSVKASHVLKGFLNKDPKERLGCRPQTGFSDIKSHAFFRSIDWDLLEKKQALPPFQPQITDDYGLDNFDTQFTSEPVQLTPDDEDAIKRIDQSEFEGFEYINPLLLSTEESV
# T4: SGK (SGK1) Serum/glucocorticoid regulated kinase (human, UniProt O00141 60-431, limits assumed)
# T4 sequence (looked up): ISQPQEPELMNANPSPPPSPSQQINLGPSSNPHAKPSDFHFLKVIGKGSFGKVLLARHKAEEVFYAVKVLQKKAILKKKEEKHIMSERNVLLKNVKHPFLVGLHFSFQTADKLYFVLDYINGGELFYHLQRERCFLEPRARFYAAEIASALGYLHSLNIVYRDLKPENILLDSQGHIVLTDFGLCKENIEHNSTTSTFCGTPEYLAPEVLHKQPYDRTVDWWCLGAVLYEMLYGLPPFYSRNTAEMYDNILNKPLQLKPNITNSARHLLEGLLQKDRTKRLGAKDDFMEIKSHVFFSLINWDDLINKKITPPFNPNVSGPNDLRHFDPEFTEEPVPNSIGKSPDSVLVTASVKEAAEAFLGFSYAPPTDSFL
# Columns and labels:
# Assay in all cases: cell-based or functional assay
# IKKβ(h) = target: T1, IKKβ(h)
# IR (h) = IR (h) (human, UniProt P06213 1005-1310, limits assumed)
# MAPK1 (h) = MAPK1 (h) (human, UniProt P28482)
# MAPK2 (h) = MAPK2 (h) (human, UniProt P28482 1-360, limits assumed)
# [1] = target: RPS6KB1 (p70S6K) Ribosomal protein S6 kinase, 70 kDa, polypeptide 1 (human, UniProt P23443 1-421, limits assumed)
# PDK1 (h) = target: T2, PDK1 (h)
# PKA(h) = PKA(h) (human, UniProt P17612 1-351)
# PKBβ (h) = PKBβ (h) (human, UniProt P31751 1-481, limits assumed)
# PKCβII (h) = PKCβII (h) (human, UniProt P05771-2 1-673)
# PKCζ (h) = target: T3, PKCζ (h)
# [2] = target: T4, SGK (SGK1) Serum/glucocorticoid …
# GSK3β (h) = GSK3β (h) (human, UniProt P49841 1-420, limits assumed)
# Chain of GSK3β (h) (P49841 whole entry): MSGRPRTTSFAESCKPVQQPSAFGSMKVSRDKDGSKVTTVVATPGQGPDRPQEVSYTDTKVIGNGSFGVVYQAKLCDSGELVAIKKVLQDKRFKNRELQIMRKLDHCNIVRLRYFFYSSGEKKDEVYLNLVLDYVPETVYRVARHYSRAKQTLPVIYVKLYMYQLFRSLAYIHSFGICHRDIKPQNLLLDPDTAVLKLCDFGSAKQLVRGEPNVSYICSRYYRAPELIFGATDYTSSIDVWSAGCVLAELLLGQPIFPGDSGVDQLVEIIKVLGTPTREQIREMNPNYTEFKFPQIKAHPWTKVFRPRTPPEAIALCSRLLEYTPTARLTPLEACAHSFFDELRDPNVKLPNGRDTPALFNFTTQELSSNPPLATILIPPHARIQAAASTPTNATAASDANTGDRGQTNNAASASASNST
# Chain of MAPK2 (h) (P28482 whole entry): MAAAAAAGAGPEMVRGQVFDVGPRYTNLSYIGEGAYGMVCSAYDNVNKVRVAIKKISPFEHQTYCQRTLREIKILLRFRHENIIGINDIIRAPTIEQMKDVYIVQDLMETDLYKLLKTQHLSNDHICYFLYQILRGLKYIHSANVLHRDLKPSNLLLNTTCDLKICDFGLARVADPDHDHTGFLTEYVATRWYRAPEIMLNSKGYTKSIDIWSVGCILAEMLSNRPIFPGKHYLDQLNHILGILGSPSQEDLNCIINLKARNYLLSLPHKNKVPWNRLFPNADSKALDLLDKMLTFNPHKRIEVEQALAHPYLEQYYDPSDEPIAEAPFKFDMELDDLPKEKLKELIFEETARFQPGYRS
# Chain of PKCβII (h) (P05771 other isoform, or with tags, fused parts or gaps limits assumed): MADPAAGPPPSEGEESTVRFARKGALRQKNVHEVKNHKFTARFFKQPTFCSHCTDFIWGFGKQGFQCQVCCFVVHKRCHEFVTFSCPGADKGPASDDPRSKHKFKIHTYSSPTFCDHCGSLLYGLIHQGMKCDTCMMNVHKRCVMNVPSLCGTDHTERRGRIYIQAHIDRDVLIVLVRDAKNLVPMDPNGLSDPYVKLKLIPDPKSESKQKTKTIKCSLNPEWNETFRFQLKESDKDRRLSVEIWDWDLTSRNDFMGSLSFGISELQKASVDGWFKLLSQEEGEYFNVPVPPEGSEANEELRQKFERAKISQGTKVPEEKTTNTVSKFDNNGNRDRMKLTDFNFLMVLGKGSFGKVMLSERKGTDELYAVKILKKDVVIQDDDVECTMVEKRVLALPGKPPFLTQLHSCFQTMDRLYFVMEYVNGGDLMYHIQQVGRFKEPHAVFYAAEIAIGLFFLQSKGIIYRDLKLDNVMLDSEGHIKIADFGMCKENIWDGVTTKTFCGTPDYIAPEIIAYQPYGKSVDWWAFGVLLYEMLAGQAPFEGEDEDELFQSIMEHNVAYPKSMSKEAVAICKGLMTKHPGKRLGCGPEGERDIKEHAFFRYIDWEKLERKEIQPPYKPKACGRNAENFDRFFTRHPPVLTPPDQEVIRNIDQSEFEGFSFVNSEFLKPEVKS
# Chain of PKBβ (h) (P31751 whole entry): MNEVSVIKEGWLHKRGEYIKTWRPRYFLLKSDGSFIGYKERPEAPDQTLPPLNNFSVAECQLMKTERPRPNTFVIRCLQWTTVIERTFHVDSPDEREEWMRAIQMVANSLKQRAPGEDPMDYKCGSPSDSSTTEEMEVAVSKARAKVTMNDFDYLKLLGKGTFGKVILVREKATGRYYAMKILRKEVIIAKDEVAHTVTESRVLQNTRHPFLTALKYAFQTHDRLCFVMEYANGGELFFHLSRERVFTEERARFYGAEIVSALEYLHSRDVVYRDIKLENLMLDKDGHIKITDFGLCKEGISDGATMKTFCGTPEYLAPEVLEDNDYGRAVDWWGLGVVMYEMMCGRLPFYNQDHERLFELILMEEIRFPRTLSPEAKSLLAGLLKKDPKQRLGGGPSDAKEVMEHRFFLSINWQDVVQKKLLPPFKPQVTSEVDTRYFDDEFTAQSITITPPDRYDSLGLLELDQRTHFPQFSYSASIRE
# Chain of RPS6KB1 (p70S6K) Ribosomal protein S6 kinase, 70 kDa, polypeptide 1 (P23443 1-421 limits assumed): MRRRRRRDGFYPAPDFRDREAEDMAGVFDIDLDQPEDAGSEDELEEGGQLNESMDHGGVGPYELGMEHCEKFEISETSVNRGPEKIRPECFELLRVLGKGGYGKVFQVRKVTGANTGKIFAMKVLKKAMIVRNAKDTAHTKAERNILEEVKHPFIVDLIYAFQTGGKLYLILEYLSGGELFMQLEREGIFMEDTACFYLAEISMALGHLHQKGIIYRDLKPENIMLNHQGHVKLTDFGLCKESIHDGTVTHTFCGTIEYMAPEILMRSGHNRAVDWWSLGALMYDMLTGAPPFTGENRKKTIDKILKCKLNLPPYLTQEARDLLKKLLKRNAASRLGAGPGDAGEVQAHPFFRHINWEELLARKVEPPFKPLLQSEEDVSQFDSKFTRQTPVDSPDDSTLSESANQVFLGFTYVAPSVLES
# Chain of MAPK1 (h) (P28482 2-360): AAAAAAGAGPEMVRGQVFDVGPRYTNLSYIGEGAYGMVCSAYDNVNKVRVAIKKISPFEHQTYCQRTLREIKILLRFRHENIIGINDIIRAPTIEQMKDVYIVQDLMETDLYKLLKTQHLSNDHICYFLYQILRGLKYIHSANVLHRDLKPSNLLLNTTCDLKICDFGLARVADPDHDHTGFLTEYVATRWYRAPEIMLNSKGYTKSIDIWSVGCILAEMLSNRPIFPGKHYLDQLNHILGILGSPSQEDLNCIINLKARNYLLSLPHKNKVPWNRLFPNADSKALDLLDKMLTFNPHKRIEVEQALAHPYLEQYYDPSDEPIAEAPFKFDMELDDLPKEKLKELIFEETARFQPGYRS
# Chain of IR (h) (P06213 1005-1310 limits assumed): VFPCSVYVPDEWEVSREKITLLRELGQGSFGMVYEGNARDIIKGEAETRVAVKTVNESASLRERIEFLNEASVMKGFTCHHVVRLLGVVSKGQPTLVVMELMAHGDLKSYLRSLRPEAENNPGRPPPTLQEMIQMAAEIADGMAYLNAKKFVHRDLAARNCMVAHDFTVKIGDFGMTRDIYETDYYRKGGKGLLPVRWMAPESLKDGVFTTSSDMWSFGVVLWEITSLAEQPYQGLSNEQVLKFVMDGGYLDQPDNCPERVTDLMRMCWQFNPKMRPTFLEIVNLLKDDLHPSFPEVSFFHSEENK
binder,measurement,setting,value
SGRPPMIVWFNRPFLIAVSHTHGQTILFMAKVINPVGA [D3 peptide],D3 at 0.1 µM % activity,IKKβ(h),103 % activity
same,D3 at 1 µm % activity,IKKβ(h),71 % activity
same,D3 at 0.1 µM % activity,IR (h),96 % activity
same,D3 at 1 µm % activity,IR (h),103 % activity
same,D3 at 0.1 µM % activity,MAPK1 (h),86 % activity
same,D3 at 1 µm % activity,MAPK1 (h),92 % activity
same,D3 at 0.1 µM % activity,MAPK2 (h),96 % activity
same,D3 at 1 µm % activity,MAPK2 (h),96 % activity
same,D3 at 0.1 µM % activity,[1],73 % activity
same,D3 at 1 µm % activity,[1],22 % activity
same,D3 at 0.1 µM % activity,PDK1 (h),98 % activity
same,D3 at 1 µm % activity,PDK1 (h),108 % activity
same,D3 at 0.1 µM % activity,PKA(h),115 % activity
same,D3 at 1 µm % activity,PKA(h),105 % activity
same,D3 at 0.1 µM % activity,PKBβ (h),63 % activity
same,D3 at 1 µm % activity,PKBβ (h),12 % activity
same,D3 at 0.1 µM % activity,PKCβII (h),101 % activity
same,D3 at 1 µm % activity,PKCβII (h),103 % activity
same,D3 at 0.1 µM % activity,PKCζ (h),95 % activity
same,D3 at 1 µm % activity,PKCζ (h),42 % activity
same,D3 at 0.1 µM % activity,[2],74 % activity
same,D3 at 1 µm % activity,[2],5 % activity
same,D3 at 0.1 µM % activity,GSK3β (h),101 % activity
same,D3 at 1 µm % activity,GSK3β (h),100 % activity

# From patent US20090203602A1 (AMERICAN TYPE CULTURE COLLECTION, published 2009)
